According to publication PMC3254805:

Molecular target: endogenous GSK3β (UniProt P49841)
Assay: anti-FoxO3a IP, GSK3β blot
Conditions: reference: HA-FoxO3a-WT; sites T32,S253,S315

FoxO3a (RLuc- or HA-tagged constructs, WT and TM) (from UniProt O43524) HA-FoxO3a-TM (triple mutant)
binding against the reference: stronger
